Patent publication US12168686

Legend:
[1] = target: soluble DR5-Fc fusion protein (UniProt O14763); assay: BLI (ForteBio Octet), ratio of kon against TRAIL-Trimer
[2] = target: soluble DR5-Fc fusion protein (UniProt O14763); assay: BLI (ForteBio Octet), ratio of koff against TRAIL-Trimer
[3] = target: soluble DR5-Fc fusion protein (UniProt O14763); assay: BLI (ForteBio Octet), biotin-labeled DR5-Fc on streptavidin sensors
[4] = target: soluble DR5-Fc fusion protein (UniProt O14763); assay: BLI (ForteBio Octet), biotin-labeled DR5-Fc on streptavidin sensors, analyte 15.4 nM-123.5 nM

soluble DR5-Fc fusion protein, sequence (O14763 56-182 limits assumed): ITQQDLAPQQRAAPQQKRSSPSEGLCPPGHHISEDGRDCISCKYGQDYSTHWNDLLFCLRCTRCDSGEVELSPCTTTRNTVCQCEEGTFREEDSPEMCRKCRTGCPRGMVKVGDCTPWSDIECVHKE
native TRAIL (recombinant soluble human TRAIL from E. coli), sequence (P50591 114-281 limits assumed): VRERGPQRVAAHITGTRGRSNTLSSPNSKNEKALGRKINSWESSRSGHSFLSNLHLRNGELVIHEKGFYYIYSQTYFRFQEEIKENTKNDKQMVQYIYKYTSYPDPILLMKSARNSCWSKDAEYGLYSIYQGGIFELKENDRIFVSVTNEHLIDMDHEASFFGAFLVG

native TRAIL (recombinant soluble human TRAIL from E. coli) (from UniProt P50591 114-281) (ligand)
fold faster association than TRAIL-Trimer [1]: 2 fold
fold faster dissociation than TRAIL-Trimer [2]: > 460 fold
koff [3]: 4.6e-05 s⁻¹
kon [3]: 175000 M⁻¹ s⁻¹
Kd [4]: 263 pM
